Biological target: T1, Nogo-66 receptor (NgR)/Fc chimera (rat, UniProt Q99M75 27-447)
T1 sequence: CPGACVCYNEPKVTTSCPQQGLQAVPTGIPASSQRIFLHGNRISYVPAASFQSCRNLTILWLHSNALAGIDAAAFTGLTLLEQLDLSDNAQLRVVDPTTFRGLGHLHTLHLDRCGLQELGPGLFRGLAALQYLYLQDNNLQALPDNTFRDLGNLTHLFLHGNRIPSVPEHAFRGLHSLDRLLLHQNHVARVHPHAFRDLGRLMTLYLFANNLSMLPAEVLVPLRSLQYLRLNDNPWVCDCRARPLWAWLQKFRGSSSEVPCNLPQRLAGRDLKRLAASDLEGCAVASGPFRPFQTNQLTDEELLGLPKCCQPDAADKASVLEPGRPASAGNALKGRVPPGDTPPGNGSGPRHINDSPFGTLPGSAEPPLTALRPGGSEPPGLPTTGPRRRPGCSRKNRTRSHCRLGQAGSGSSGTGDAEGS
Experiment: filter binding; three-point estimate, data not shown; Selection buffer PBS pH 7.4, 3 mM MgCl2; RNA 0.5 nM, NgR/Fc 12.5-500 nM for Kd; competition 20 min at 37 C
Settings: protein: commercial; tags: human IgG Fc fusion; chain copies: 2; label: 32P

B1: Clone 6 (ssRNA)
RNA: GGGUUUACCUAGGUGUAGAUGCUCUCUCUAUUUCAUUCGUAGGCUAUUGGUGCCGCAAAUACUAGCUUUACGAAAGUGACGUCUGAACUGCUUCGAAAA
  binding result: binds

From publication PMC2838799, “Aptamer Antagonists of Myelin-Derived Inhibitors Promote Axon Growth”
